Measurements as given in publication PMC5780489, “Characterization of the multimeric structure of poly(A)-binding protein on a poly(A) tail” (Scientific Reports, 2018).

Target: T1, PABPC1 RRM1/2/3/4 (residues 1-370) (human, UniProt P11940 1-370)
T1 construct: human PABPC1, residues 1-370 (RRM1 to RRM4), cloned into pET-42b(+); Used in complex with long poly(A) or A24 RNA; Purification details are in the Supplementary methods; source: E. coli, purified (Glutathione-Sepharose 4B, GST cleaved off, cation exchange, gel filtration)
Test: NMR titration; 1H-15N HSQC of 15N-labelled Lt2 (100 μM) with RRM1/2/3/4-A24 at 50, 100 and 150 μM; chemical shift changes of W437 side chain, W437 and T438 fitted to a 1:1 model; not saturated; 303 K, 26 mM NaH2PO4 pH 6.0, 100 mM NaCl
Conditions: both partners purified

T1 sequence (P11940 1-370): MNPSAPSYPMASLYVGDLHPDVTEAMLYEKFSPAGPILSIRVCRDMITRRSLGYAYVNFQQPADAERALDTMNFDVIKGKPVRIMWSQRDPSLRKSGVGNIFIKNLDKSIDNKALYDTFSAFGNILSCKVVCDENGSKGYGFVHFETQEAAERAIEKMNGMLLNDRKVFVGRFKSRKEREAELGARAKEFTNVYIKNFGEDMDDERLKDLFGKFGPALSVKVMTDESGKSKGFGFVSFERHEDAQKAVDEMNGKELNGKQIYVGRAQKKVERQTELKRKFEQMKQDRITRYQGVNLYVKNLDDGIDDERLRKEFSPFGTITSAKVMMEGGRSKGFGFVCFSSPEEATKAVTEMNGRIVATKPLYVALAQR

B1: PABPC1 linker fragment Lt2 (residues 421-470) (peptide, UniProt P11940 421-470, looked up)
chain: AYYPPSQIAQLRPSPRWTAQGARPHPFQNMPGAIRPAAPRPPFSTMRPAS
notes: human PABPC1, residues 421-470, cloned into pGEX-6p-1; Uniformly 15N-labelled for NMR
  Kd: 10 to 54 µM
